# Data from patent US20240309087A1 (SHANGHAI JUNSHI BIOSCIENCES, published 2024).
# Residue numbers refer to the chain shown, from its start.
# T1: hCD112R mFC recombinant protein (human; murine, UniProt Q6DKI7 41-160)
# T1 construct: range 41-160; expressed in 293E cells; also called hCD112R ECD mFC; hCD112R-ECD-mFC; not shown: murine IgG2a Fc domain (MX2-mFc vector)
# T1 sequence (looked up): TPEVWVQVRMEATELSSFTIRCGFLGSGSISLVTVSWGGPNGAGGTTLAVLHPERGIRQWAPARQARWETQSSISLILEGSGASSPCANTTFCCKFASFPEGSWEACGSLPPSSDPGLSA
# T2: human CD112R on Jurkat CD112R effector cells (human, UniProt Q6DKI7 1-326)
# T2 sequence (looked up): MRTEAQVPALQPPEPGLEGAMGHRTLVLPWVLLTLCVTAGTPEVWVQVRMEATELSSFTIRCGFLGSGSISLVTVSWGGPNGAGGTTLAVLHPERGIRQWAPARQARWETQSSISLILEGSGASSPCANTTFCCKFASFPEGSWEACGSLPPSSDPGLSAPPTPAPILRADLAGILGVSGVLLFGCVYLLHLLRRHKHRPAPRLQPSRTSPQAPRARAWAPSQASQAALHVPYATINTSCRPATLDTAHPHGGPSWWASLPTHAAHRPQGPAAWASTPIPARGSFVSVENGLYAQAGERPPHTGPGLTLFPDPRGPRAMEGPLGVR
# B1: Hu49 (antibody, IgG4, V domains shown)
# VH: EVQLVESGGGLVKPGGSLRLSCAASGFTFSSYHMSWVRQAPGKGLELVSAINSNGINTYYLDTVKGRFTISRDNAKNSLYLQMNSLRAEDTAVYYCARHEDYYGFAMDYWGQGTLVTVSS
# VL: DIVMTQSPDSLAVSLGERATINCKASQSVTNDVAWYQQKPGQPPKLLIYYVSNHYTGVPDRFSGSGSGTDFTLTISSLQAEDVAVYFCQQAYRSPWTFGQGTKLEIK
# notes: humanized IgG4
# B2: Hu50 (antibody, IgG4, V domains shown)
# VH: B1 VH
# VL: AIQMTQSPSSLSASVGDRVTITCKASQSVTNDVAWYQQKPGKAPKLLIYYVSNHYTGVPSRFSGSGSGTDFTLTISSLQPEDFATYFCQQAYRSPWTFGQGTKLEIK
# notes: humanized IgG4
# B3: Hu51 (antibody, IgG4, V domains shown)
# VH: B1 VH
# VL: EIVMTQSPPTLSLSPGERVTLSCKASQSVSNDVAWYQEKPGQAPRLLIYYVSHRFTGIPARFSGSGSGTDFTLTISSLQPEDFAVYYCHQAYRSPWTFGQGTKLEIK
# notes: humanized IgG4
# B4: Hu11 (antibody, IgG4, V domains shown)
# VH: B1 VH with G55D, N74I
# VL: B2 VL with A1D, T30S, H54R, Y55F
# notes: humanized IgG4
# B5: Hu26 (antibody, IgG4, V domains shown)
# VH: EVQLVESGGGLVQPGGSLRLSCAASGFTFSSYHMSWVRQAPGKGLELVAAISRDGDSTYYPDTVKGRFTISRDNAKNSLYLQMNSLRAEDTAVYYCSRHEDYFGFAMDSWGQGTLVTVSS
# VL: B2 VL
# notes: humanized IgG4
# B6: Hu58 (antibody, IgG4, V domains shown)
# VH: B1 VH with K13Q, V37I, S49A
# VL: B1 VL with T30S, N53H, H54R, Y55F, Q89H
# notes: humanized IgG4
# B7: Hu14 (antibody, IgG4, V domains shown)
# VH: B5 VH with Q13K, A49S
# VL: B2 VL
# notes: humanized IgG4
# B8: Hu55 (antibody, IgG4, V domains shown)
# VH: B1 VH with K13Q, V37I, S49A
# VL: B1 VL
# notes: humanized IgG4
# B9: Hu2 (antibody, IgG4, V domains shown)
# VH: B1 VH with K13Q, S49A, G55D, N74I
# VL: B2 VL
# notes: humanized IgG4; also called Hu-02
# B10: Hu6 (antibody, IgG4, V domains shown)
# VH: B1 VH with K13Q, S49A, G55D, N74I
# VL: B3 VL with E38Q, H53N, Y87F, H89Q
# notes: humanized IgG4; also called Hu-06
# B11: Hu3 (antibody, IgG4, V domains shown)
# VH: B1 VH with K13Q, S49A, G55D, N74I
# VL: B3 VL
# notes: humanized IgG4; also called Hu-03
# B12: Hu56 (antibody, IgG4, V domains shown)
# VH: B1 VH with K13Q, V37I, S49A
# VL: B2 VL
# notes: humanized IgG4
# B13: Hu53 (antibody, IgG4, V domains shown)
# VH: B1 VH
# VL: B2 VL with A1D, T30S, H54R, Y55F
# notes: humanized IgG4
# B14: Hu20 (antibody, IgG4, V domains shown)
# VH: B5 VH with Q13K, A49S, N74D, K76E
# VL: B2 VL
# notes: humanized IgG4
# B15: Hu8 (antibody, IgG4, V domains shown)
# VH: B1 VH with G55D, N74I
# VL: B2 VL
# notes: humanized IgG4; also called Hu-08
# B16: Hu5 (antibody, IgG4, V domains shown)
# VH: B1 VH with K13Q, S49A, G55D, N74I
# VL: B2 VL with A1D, T30S, H54R, Y55F
# notes: humanized IgG4; also called Hu-05
# B17: Hu32 (antibody, IgG4, V domains shown)
# VH: B5 VH with N74D, K76E
# VL: B2 VL
# notes: humanized IgG4
# Molecular target: T1, hCD112R mFC recombinant protein
# Assay: ELISA, coated hCD112R-ECD-mFC
# Experimental: (§1) A plate was coated with a hCD112R-ECD-mFC protein (1.5 μg/mL) at a fixed concentration, and the humanized anti-CD112R antibodies diluted in a gradient (initial concentration: 1 μg/mL, 2.5-fold gradient dilution, 12 concentration gradients in total) were added to bind to the antigen. HRP-conjugated goat anti-human antibody IgG (Fc specific) (Sigma, A0170) was subjected to a 5000-fold dilution and used as a detection antibody for detection. The color development was performed with 0.1 mg/mL TMB, and finally stopped with 2 M hydrochloric acid. The plate was read at 420 nm/620 nm. EC₅₀ was obtained by fitting with a four-parameter logistic regression (4PL) model. The […] were COM701 (anti-CD112R antibody, Compugen, obtained by expression and purification according to the sequences in US20180280506A1) and the anti-KLH hu-IgG4 antibody.
row,EC50 [ng/mL],Binder
1,4.95,B1
2,4.59,B2
3,6.63,B3
4,2.75,B4
5,3.51,B5
6,4.88,B6
7,4.43,B7
8,5.53,B8
9,3.03,B9
10,2.71,B10
11,3.55,B11
12,4.75,B12
13,5.42,B13
14,5.18,B14
15,3.09,B15
16,2.75,B16
17,4.04,B17

# Molecular target: T1, hCD112R mFC recombinant protein
# Assay: ELISA, coated hCD112R-ECD-mFC; EC50 COM701/EC50 antibody
# Experimental: as §1
row,Relative activity (%),Binder
1,176,B1
2,190,B2
3,138,B3
4,143,B4
5,190,B5
6,172,B6
7,129,B7
8,166,B8
9,141,B9
10,158,B10
11,120,B11
12,193,B12
13,169,B13
14,128,B14
15,127,B15
16,155,B16
17,150,B17

# Molecular target: T2, human CD112R on Jurkat CD112R effector …
# Assay: cell-based or functional assay
"EC50, CD112R/CD112 reporter [ng/mL]","Relative activity (%), EC50 COM701/EC50 antibody [%]",Binder
30.7,214,B1
26.8,245,B2
22.5,332,B3
52.9,148,B4
35.3,183,B5
21.6,277,B6
22.5,215,B7
22.3,302,B8
57.7,110,B9
52.9,128,B10
38,189,B11
24.3,276,B12
23,314,B13
38,135,B14
63.3,110,B15
46.1,148,B16
47,119,B17

# Molecular target: T1, hCD112R mFC recombinant protein
# Assay: FACS competition, hCD112R mFc on CHO CD112 cells
# Experimental: (§2) Cells CHO CD112 overexpressing human CD112 were co-incubated with a hCD112R mFc protein solution (5 μg/mL) prepared in a staining buffer (PBS+1% FBS), and the humanized anti-CD112R antibodies or the control antibodies at different concentrations (initial concentration: 100 μg/mL, 3-fold dilution, 10 concentration gradients) at 4° C. for 30 min. Unbound antibodies were then washed with a staining buffer and the cells were incubated with 1% (v/v) goat anti-mouse IgG Fc fluorescent secondary antibodies (Jackson ImmunoResearch) prepared in a staining buffer at 4° C. for 30 min in the dark. Finally, the cells were collected by using a flow cytometer (BD Canto II), and the fluorescent antibodies bound to the cell surface were detected. Raw data were analyzed by using FlowJo to obtain MFI values, and a four-parameter curve fitting was performed by using GraphPad Prism software to obtain IC₅₀ values. The positive control and the negative control were COM701 (anti-CD112R antibody, Compugen, obtained by expression and purification according to the sequences in US20180280506A1) and the anti-KLH hu-IgG4 antibody, respectively.
row,IC50 [µg/mL],Binder
1,2.47,B1
2,2.67,B2
3,3.48,B3
4,4.34,B4
5,2.47,B5
6,3.25,B6
7,2.21,B7
8,2.81,B8
9,4.28,B9
10,4.46,B10
11,4.24,B11
12,3.39,B12
13,3.18,B13
14,2.25,B14
15,4.62,B15
16,4.41,B16
17,2.82,B17

# Molecular target: T1, hCD112R mFC recombinant protein
# Assay: FACS competition, hCD112R mFc on CHO CD112 cells; IC50 COM701/IC50 antibody
# Experimental: as §2
row,Relative activity (%),Binder
1,97.5,B1
2,90,B2
3,69.2,B3
4,91.6,B4
5,145,B5
6,74,B6
7,162,B7
8,85.7,B8
9,92.9,B9
10,89.1,B10
11,93.9,B11
12,71,B12
13,75.7,B13
14,159,B14
15,86.1,B15
16,90.2,B16
17,127,B17
